The values below are quoted from earlier work in article PMC4557399.

Data set [1] deals with F1-ATP synthase beta subunit (UniProt P06576). In words: surface plasmon resonance.
Data set [2] deals with F1-ATP synthase beta subunit (Bos taurus) (UniProt P00829). Put plainly: bovine retinal endothelial cell binding.

pKd: −log10 of the molar value.

Chain of PEDF (P36955 20-418): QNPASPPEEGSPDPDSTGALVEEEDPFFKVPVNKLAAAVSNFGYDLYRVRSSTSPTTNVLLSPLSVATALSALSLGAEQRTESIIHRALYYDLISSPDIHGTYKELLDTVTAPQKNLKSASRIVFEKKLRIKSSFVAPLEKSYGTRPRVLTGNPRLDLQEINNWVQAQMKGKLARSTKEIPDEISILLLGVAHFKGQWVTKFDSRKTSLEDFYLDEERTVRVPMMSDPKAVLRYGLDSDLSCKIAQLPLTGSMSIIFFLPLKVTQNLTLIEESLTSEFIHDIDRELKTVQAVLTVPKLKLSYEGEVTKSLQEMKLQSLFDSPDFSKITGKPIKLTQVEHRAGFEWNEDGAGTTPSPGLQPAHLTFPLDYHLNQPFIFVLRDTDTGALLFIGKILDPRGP
Chain of F1-ATP synthase beta subunit (Bos taurus) (P00829 47-528): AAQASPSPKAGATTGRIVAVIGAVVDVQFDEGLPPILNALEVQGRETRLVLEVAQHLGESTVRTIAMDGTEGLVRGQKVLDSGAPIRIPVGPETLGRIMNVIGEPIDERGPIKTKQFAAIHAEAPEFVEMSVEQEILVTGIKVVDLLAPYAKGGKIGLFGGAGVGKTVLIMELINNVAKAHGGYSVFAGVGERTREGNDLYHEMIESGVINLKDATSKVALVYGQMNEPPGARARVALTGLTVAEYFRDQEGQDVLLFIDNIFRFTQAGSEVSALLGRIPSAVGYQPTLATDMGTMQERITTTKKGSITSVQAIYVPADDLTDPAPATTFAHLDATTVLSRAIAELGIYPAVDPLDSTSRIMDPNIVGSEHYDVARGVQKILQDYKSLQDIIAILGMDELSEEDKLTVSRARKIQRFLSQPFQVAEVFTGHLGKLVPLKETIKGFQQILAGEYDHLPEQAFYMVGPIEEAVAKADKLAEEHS
Chain of F1-ATP synthase beta subunit (P06576 48-529): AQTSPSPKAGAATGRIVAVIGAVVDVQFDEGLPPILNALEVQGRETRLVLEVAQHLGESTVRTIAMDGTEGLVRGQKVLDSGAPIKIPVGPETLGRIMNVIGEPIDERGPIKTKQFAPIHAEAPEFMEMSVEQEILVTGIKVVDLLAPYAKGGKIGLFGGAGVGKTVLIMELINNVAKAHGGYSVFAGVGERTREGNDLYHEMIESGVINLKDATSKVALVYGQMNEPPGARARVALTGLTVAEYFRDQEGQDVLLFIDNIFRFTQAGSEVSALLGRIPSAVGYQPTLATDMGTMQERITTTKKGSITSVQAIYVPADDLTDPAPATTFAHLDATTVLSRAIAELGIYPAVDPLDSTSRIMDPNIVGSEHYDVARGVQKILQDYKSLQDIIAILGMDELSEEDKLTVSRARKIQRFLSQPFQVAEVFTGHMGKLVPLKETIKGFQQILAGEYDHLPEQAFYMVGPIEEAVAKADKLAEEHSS

For PEDF (from UniProt P36955), the negative-log Kd (pKd) (as a rule, −log10 of the Kd, conventionally taken in molar units) in data set [1] is 8.82; in data set [2] it was 8.40.
